From patent US8236762B2, “Peptide-cytotoxic conjugates” (IPSEN Pharma S.A.S., priority 2006, dated 2012)
Like-named read-outs stand apart in the source and are kept apart here. Numbered stars: 1 amine (or outer) side, 2 acyl side, 3 side chain; on linkers, the order of the positions; unused ones are H or OH. Square brackets hold non-standard residues; d marks the D form. Peptide text beside a SMILES is read from it. * marks the point of attachment. Pipz(1-CH2CO,4-CH2CH2NH) = O=C(CN1CCN(CCN[*:1])CC1)[*:2]; X1 = CC[C@@]1(O*)C(=O)OCc2c1cc1n(c2=O)Cc2cc3ccccc3nc2-1; Suc = O=C(CCC(=O)[*:2])[*:1]; Nle = CCCC[C@H](N)C(=O)O; AEEA = NCCOCCOCC(=O)O; GABA = NCCCC(=O)O; βAla = NCCC(=O)O

What was measured:
hSSTR-4 = biological target: T1, hSSTR-4 (Homo sapiens, UniProt P31391); assay: Somatostatin receptor radioligand binding, hSSTR-4 (CHO-K1 membranes); conditions: read-out: Ki hSSTR4 ± (SEM)
T1 construct: expressed in transfected cells; host or cells: CHO-K1
T1 sequence (P31391 whole entry): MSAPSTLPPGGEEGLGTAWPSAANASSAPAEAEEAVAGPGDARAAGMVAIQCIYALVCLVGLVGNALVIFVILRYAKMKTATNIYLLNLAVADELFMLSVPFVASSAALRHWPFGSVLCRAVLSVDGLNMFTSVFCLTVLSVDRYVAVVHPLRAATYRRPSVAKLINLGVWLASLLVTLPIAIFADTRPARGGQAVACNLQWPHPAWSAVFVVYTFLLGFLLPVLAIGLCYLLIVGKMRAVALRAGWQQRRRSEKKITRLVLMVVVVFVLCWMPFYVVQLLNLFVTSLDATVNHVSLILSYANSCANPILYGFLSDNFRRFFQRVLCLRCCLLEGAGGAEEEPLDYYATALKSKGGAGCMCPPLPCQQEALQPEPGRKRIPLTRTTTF
Method: For the hSSTR-1, hSSTR-3, and hSSTR-4 assays, aliquots of the membrane preparations were incubated for 90 minutes at 25° C. with 0.05 nM [^125I-Tyr11]SRIF-14 in 50 mM HEPES (pH 7.4) buffer containing 0.2% BSA and 5 mM MgCl2. The final assay volume was 0.3 ml. For the hSSTR-2 and hSSTR-5 assays, [^125I]-[4-(2-hydroxyethyl)]-1-piperazinylacetyl-D-Phe-c(Cys-Tyr-D-Trp-Lys-Abu-Cys)-Thr-NH2 (0.05 nM) and [^125I]-D-Phe-c(Cys-Tyr-D-Trp-Lys-Val-Cys)-Thr-NH2 were employed as the radioligands, respectively.

[1] = Half-life determination in human plasma (LC-MS); format: in vitro ADME; conditions: 37° C.
Method: (§1) Samples containing approximately 50 μg/ml up to and including approximately 500 μg/ml of test compound according to Formula IA or IB or II was added to 450 μl human or mouse plasma, vortexed briefly and incubated at 37° C. At various time intervals, e.g., 0, 0.5, 1, 2, 4, 6, 8, 24, 36 and 48 hours, 50 μl of the compound-plasma mixture was added to 150 μl acetonitrile in a microcentrifuge tube. The mixture was vortexed, centrifuged for 5 minutes at 10K RPM, and 135 μl of supernatant was transferred to an injection vial. The recovered supernatant was analyzed by using a liquid chromatography-mass spectrophotometer system (LC-MS) consisting of a Finnigan Deca XP® mass spectrometer with an ESI probe at the positive ion mode. HPLC separation was carried out on a Luna 3μ C8 (2)® 3×50 mm column with a gradient decreasing from 100% A to 80% B for 10 minutes at a flow rate of 0.25 ml/min. Buffer A was 0.1% acetic acid in water and buffer B was 0.1% acetic acid acetonitrile.

hSSTR-1 = biological target: T2, hSSTR-1 (Homo sapiens, UniProt P30872); assay: Somatostatin receptor radioligand binding, hSSTR-1 (CHO-K1 membranes); conditions: read-out: Ki hSSTR1 ± (SEM)
T2 construct: expressed in transfected cells; host or cells: CHO-K1
T2 sequence (P30872 whole entry): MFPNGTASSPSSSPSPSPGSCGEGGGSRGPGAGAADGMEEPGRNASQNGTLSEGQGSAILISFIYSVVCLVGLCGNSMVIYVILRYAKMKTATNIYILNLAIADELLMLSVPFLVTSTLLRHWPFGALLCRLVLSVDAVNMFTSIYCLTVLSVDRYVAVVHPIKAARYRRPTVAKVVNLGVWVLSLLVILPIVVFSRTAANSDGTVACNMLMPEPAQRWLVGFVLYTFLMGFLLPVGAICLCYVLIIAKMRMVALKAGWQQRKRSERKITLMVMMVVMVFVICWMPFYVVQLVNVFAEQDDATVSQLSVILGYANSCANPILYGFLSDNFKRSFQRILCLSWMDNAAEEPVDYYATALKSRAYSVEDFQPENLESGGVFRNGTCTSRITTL
Method: Membranes for in vitro receptor binding assays were obtained by homogenizing (Polytron setting 6, 15 sec) CHO-K1 cells expressing human somatostatin receptor subtypes hSSTR-1, hSSTR-2, hSSTR-3, hSSTR-4 or hSSTR-5 in ice-cold 50 mM Tris-HCl. The homogenized cells were centrifuged twice at 39,000 g for 10 minutes with an intermediate resuspension in fresh buffer. The final pellets were resuspended in 10 mM Tris-HCl to prepare the cell membrane homogenate for use in the binding assay.
The final assay volume was 0.3 ml.
The cell membrane homogenate was incubated with the radioligands for 90 minutes at 25° C. The incubations were terminated by rapid filtration through GF/C filters pre-soaked in 0.3% polyethylenimine using a Brandel® filtration manifold (Gaithersberg, Md., U.S.A.). Each tube and filter was washed three times with 5-ml aliquots of ice-cold buffer. Specific binding was defined as the total radioligand bound minus that bound in the presence of 1000 nM SRIF-14 (for hSSTR-1, hSSTR-3, hSSTR-4 or hSSTR-5), or 1000 nM DPhe-c(Cys-Tyr-D-Trp-Lys-Abu-Cys)-Thr-NH2 for hSSTR-2.

[2] = Half-life determination in mouse plasma (LC-MS); format: in vitro ADME; conditions: 37° C.
Method: as §1

[3] = [125I-Tyr11]SRIF-14, value of 1000 indicates at least 1000

Molecule | Ki (hSSTR-4) [nM] | half-life [1] [h] | Ki (hSSTR-1) [nM] | half-life [2] [h] | Ki (hSSTR-4; [3]) [nM] | Ki (hSSTR-1; [3]) [nM]
CC[C@@H]1NC(=O)[C@H](CCCCN)NC(=O)[C@@H](Cc2c[nH]c3ccccc23)NC(=O)[C@H](Cc2ccc(O)cc2)NC(=O)[C@@H](NC(=O)[C@@H](Cc2ccccc2)NC(=O)CN2CCN(CCNC(=O)COCCOCCNC(=O)COCCOCCNC(=O)COCCOCCNC(=O)COCCOCCNC(=O)CCC(=O)N[C@@H](CNC(=O)OCc3ccccc3)C(=O)O[C@]3(CC)C(=O)OCc4c3cc3n(c4=O)Cc4cc5ccccc5nc4-3)CC2)CSSC[C@@H](C(=O)N[C@H](C(N)=O)[C@@H](C)O)NC1=O [Example 8, Camptothecin-rvDap(Z)-Suc-(Doc)4-Aepa-D-Phe-c(Cys-Tyr-D-Trp-Lys-Abu-Cys)-Thr-NH2] | ≥ 1000 | 0.7 | ≥ 1000 | 2.2 |  | 
CC[C@@H]1NC(=O)[C@H](CCCCN)NC(=O)[C@@H](Cc2c[nH]c3ccccc23)NC(=O)[C@H](Cc2ccc(O)cc2)NC(=O)[C@@H](NC(=O)[C@@H](Cc2ccccc2)NC(=O)CN2CCN(CCNC(=O)COCCOCCNC(=O)COCCOCCNC(=O)COCCOCCNC(=O)COCCOCCNC(=O)CCC(=O)N[C@H](CNC(=O)OCc3ccccc3)C(=O)O[C@]3(CC)C(=O)OCc4c3cc3n(c4=O)Cc4cc5ccccc5nc4-3)CC2)CSSC[C@@H](C(=O)N[C@H](C(N)=O)[C@@H](C)O)NC1=O [Example 9, Camptothecin-rvD-Dap(Z)-Suc-(Doc)4-Aepa-D-Phe-c(Cys-Tyr-D-Trp-Lys-Abu-Cys)-Thr-NH2] | ≥ 1000 | 0.7 | ≥ 1000 | 1.7 |  | 
CC[C@@H]1NC(=O)[C@H](CCCCN)NC(=O)[C@@H](Cc2c[nH]c3ccccc23)NC(=O)[C@H](Cc2ccc(O)cc2)NC(=O)[C@@H](NC(=O)[C@@H](Cc2ccccc2)NC(=O)CN2CCN(CCNC(=O)COCCOCCNC(=O)COCCOCCNC(=O)COCCOCCNC(=O)COCCOCCNC(=O)CCC(=O)N[C@@H](Cc3ccccc3)C(=O)O[C@]3(CC)C(=O)OCc4c3cc3n(c4=O)Cc4cc5ccccc5nc4-3)CC2)CSSC[C@@H](C(=O)N[C@H](C(N)=O)[C@@H](C)O)NC1=O [Example 10, Camptothecin-rvPhe-Suc-(Doc)4-Aepa-D-Phe-c(Cys-Tyr-D-Trp-Lys-Abu-Cys)-Thr-NH2] | ≥ 1000 | 0.3 | ≥ 1000 | 2.4 |  | 
CC[C@@H]1NC(=O)[C@H](CCCCN)NC(=O)[C@@H](Cc2c[nH]c3ccccc23)NC(=O)[C@H](Cc2ccc(O)cc2)NC(=O)[C@@H](NC(=O)[C@@H](Cc2ccccc2)NC(=O)CN2CCN(CCNC(=O)COCCOCCNC(=O)COCCOCCNC(=O)COCCOCCNC(=O)COCCOCCNC(=O)CCC(=O)NCCCCC(=O)O[C@]3(CC)C(=O)OCc4c3cc3n(c4=O)Cc4cc5ccccc5nc4-3)CC2)CSSC[C@@H](C(=O)N[C@H](C(N)=O)[C@@H](C)O)NC1=O [Example 11, Camptothecin-rvApn-Suc-(Doc)4-Aepa-D-Phe-c(Cys-Tyr-D-Trp-Lys-Abu-Cys)-Thr-NH2] | ≥ 1000 | 5 | ≥ 1000 | 3.7 |  | 
CCc1c2c(nc3ccc(O)cc13)-c1cc3c(c(=O)n1C2)COC(=O)[C@@]3(CC)OC(=O)CNC(=O)CCC(=O)NCCOCCOCC(=O)NCCOCCOCC(=O)NCCOCCOCC(=O)NCCOCCOCC(=O)NCCN1CCN(CC(=O)N[C@H](Cc2ccccc2)C(=O)N[C@H]2CSSC[C@@H](C(=O)N[C@H](C(N)=O)[C@@H](C)O)NC(=O)[C@H](CC)NC(=O)[C@H](CCCCN)NC(=O)[C@@H](Cc3c[nH]c4ccccc34)NC(=O)[C@H](Cc3ccc(O)cc3)NC2=O)CC1 [Example 19, SN38-rvGly-Suc-(Doc)4-Aepa-D-Phe-c(Cys-Tyr-D-Trp-Lys-Abu-Cys)-Thr-NH2] |  | 6.9 | ≥ 1000 | 2.6 |  | 
CCCC[C@H](NC(=O)[C@H](CC(C)C)NC(=O)[C@H](Cc1c[nH]cn1)NC(=O)CCNC(=O)[C@@H](NC(=O)[C@H](C)NC(=O)[C@H](Cc1c[nH]c2ccccc12)NC(=O)[C@H](CCC(N)=O)NC(=O)[C@@H](Cc1ccc(O)cc1)NC(=O)[C@@H](CO)NC(=O)[C@H](CCCCN)NC(=O)COCCOCCNC(=O)COCCOCCNC(=O)COCCOCCNC(=O)COCCOCCNC(=O)CCC(=O)NCC(=O)O[C@]1(CC)C(=O)OCc2c1cc1n(c2=O)Cc2cc3ccccc3nc2-1)C(C)C)C(N)=O [Example 25, Camptothecin-rvGly-Suc-(Doc)4-Lys-D-Ser-D-Tyr-Gln-Trp-Ala-Val-β-Ala-His-Leu-Nle-NH2] ({X1-Gly-Suc-AEEA-AEEA-AEEA-AEEA}-K[dS][dY]QWAV[βAla]HL[Nle]-NH2) |  | 2.4 |  | 2.6 |  | 
CCCC[C@H](NC(=O)[C@H](CC(C)C)NC(=O)[C@H](Cc1c[nH]cn1)NC(=O)CCNC(=O)[C@@H](NC(=O)[C@H](C)NC(=O)[C@H](Cc1c[nH]c2ccccc12)NC(=O)[C@H](CCC(N)=O)NC(=O)[C@@H](Cc1ccc(O)cc1)NC(=O)[C@@H](C)NC(=O)[C@H](CCCNC(=N)N)NC(=O)COCCOCCNC(=O)COCCOCCNC(=O)COCCOCCNC(=O)COCCOCCNC(=O)CCC(=O)NCC(=O)O[C@]1(CC)C(=O)OCc2c1cc1n(c2=O)Cc2cc3ccccc3nc2-1)C(C)C)C(N)=O [Example 26, Camptothecin-rvGly-Suc-(Doc)4-Arg-D-Ala-D-Tyr-Gln-Trp-Ala-Val-β-Ala-His-Leu-Nle-NH2] ({X1-Gly-Suc-AEEA-AEEA-AEEA-AEEA}-R[dA][dY]QWAV[βAla]HL[Nle]-NH2) |  | 1.4 |  | 1.8 |  | 
CCCC[C@H](NC(=O)[C@H](CC(C)C)NC(=O)[C@H](Cc1c[nH]cn1)NC(=O)CCNC(=O)[C@@H](NC(=O)[C@H](C)NC(=O)[C@H](Cc1c[nH]c2ccccc12)NC(=O)[C@H](CCC(N)=O)NC(=O)[C@@H](Cc1ccc(O)cc1)NC(=O)[C@@H](CO)NC(=O)CCCNC(=O)CN1CCN(CCNC(=O)COCCOCCNC(=O)COCCOCCNC(=O)COCCOCCNC(=O)COCCOCCNC(=O)CCC(=O)NCC(=O)O[C@]2(CC)C(=O)OCc3c2cc2n(c3=O)Cc3cc4ccccc4nc3-2)CC1)C(C)C)C(N)=O [Example 28, Camptothecin-rvGly-Suc-(Doc)4-Aepa-Gaba-D-Ser-D-Tyr-Gln-Trp-Ala-Val-β-Ala-His-Leu-Nle-NH2] ({X1-Gly-Suc-AEEA-AEEA-AEEA-AEEA}-[Pipz(1-CH2CO,4-CH2CH2NH)][GABA][dS][dY]QWAV[βAla]HL[Nle]-NH2) |  | 1.9 |  | 2.9 |  | 
CC[C@@H]1NC(=O)[C@H](CCCCN)NC(=O)[C@@H](Cc2c[nH]c3ccccc23)NC(=O)[C@H](Cc2ccc(O)cc2)NC(=O)[C@@H](NC(=O)[C@@H](Cc2ccccc2)NC(=O)CN2CCN(CCNC(=O)COCCOCCOCCNC(=O)COCCOCCOCCNC(=O)COCCOCCOCCNC(=O)CCC(=O)N[C@H](CC(=O)O)C(=O)O[C@]3(CC)C(=O)OCc4c3cc3n(c4=O)Cc4cc5ccccc5nc4-3)CC2)CSSC[C@@H](C(=O)N[C@H](C(N)=O)[C@@H](C)O)NC1=O [Example 29, Camptothecin-rvDAsp-Suc-(Peg3)3-Aepa-DPhe-c(Cys-Tyr-DTrp-Lys-Abu-Cys)-Thr-NH2] |  | 9.3 | ≥ 1000 | 44.1 |  | 
CC[C@@H]1NC(=O)[C@H](CCCCN)NC(=O)[C@@H](Cc2c[nH]c3ccccc23)NC(=O)[C@H](Cc2ccc(O)cc2)NC(=O)[C@@H](NC(=O)[C@@H](Cc2ccccc2)NC(=O)CN2CCN(CCNC(=O)CCOCCOCCOCCOCCOCCOCCOCCOCCOCCOCCOCCOCCNC(=O)CCC(=O)N[C@H](CC(=O)O)C(=O)O[C@]3(CC)C(=O)OCc4c3cc3n(c4=O)Cc4cc5ccccc5nc4-3)CC2)CSSC[C@@H](C(=O)N[C@H](C(N)=O)[C@@H](C)O)NC1=O [Example 30, Camptothecin-rvDAsp-Suc-Peg11-Aepa-DPhe-c(Cys-Tyr-DTrp-Lys-Abu-Cys)-Thr-NH2] |  |  | ≥ 1000 |  |  | 
CC[C@@H]1NC(=O)[C@H](CCCCN)NC(=O)[C@@H](Cc2c[nH]c3ccccc23)NC(=O)[C@H](Cc2ccc(O)cc2)NC(=O)[C@@H](NC(=O)[C@@H](Cc2ccccc2)NC(=O)CN2CCN(CCNC(=O)COCCOCCNC(=O)COCCOCCNC(=O)COCCOCCNC(=O)COCCOCCNC(=O)CCC(=O)N[C@H](CCC(=O)O)C(=O)O[C@]3(CC)C(=O)OCc4c3cc3n(c4=O)Cc4cc5ccccc5nc4-3)CC2)CSSC[C@@H](C(=O)N[C@H](C(N)=O)[C@@H](C)O)NC1=O [Example 31, Camptothecin-rvDGlu-Suc-(Doc)4-Aepa-DPhe-c(Cys-Tyr-DTrp-Lys-Abu-Cys)-Thr-NH2] |  |  | ≥ 1000 |  |  | 
Camptothecin-rvD-Glu-Suc-(Doc)4-Aepa-D-Phe-c(Cys-Tyr-D-Trp-Lys-Abu-Cys)-Thr-NH2 and Camptothecin-rvGlu-Suc-(Doc)4-Aepa-D-Phe-c(Cys-Tyr-D-Trp-Lys-Abu-Cys)-Thr-NH2 [Example 6] |  |  |  |  | ≥ 1000 | ≥ 1000
